Results as given in patent US9944719 (HOFFMAN LA ROCHE, dated 2018).
Positions count from the first letter of the chain named.

B1: GH6L (bispecific antibody, V domains shown)
VH: WVQLVESGGGLVQPGGSLRLSCAAKGALFSTYAMSWIRQAPGKGLEWIGQISGSGGSTVYNYNVLGRFTISRDNSKNTLYLQMNSLRAEDTAVYYCARDSGYFDIWGQGTLVTVSS
VL: ATQRTQSPSSLSASVGDRVTITCRALWHISSYLAWYQQKPGKAPKLLIYAASWLYWDVPSRFSGSGSGTDFTLTISSLQPEDFATYYCQQYSGLPYTFGQGTKVEIKR
notes: Specific for human GMCSF and human IL6, with two paratopes in one VH-VL pair; also called bi-specific antibody clone GH6L
B2: VH6L (Fab, V domains shown)
VH: B1 VH with W1Y, V2Y, K25D, A27F, T31G, S100T, I105H
VL: B1 VL with A1N, T2I, R4K, W53H, Y55H, W56Y, D57G
notes: Bi-specific clone (VEGF and IL6, two paratopes in one VH-VL pair) combined from IL6P and VEGFP; Tested as a Fab fragment; also called bi-specific antibody clone VH6L; combined clone VH6L
B3: VEGFP (Fab, V domains shown)
VH: B1 VH with W1Y, V2Y, K25D, A27F, T31G, V59Y, Y62D, S100T, I105H
VL: B1 VL with A1D, R4M, L26S, W27Q, H28S, W53H, Y55H, W56Y, D57G, G93S
notes: Parental anti-VEGF clone, tested as a Fab fragment captured by an anti-light chain antibody in Biacore; the constant parts are human CH1 and CK; also called parental antibody VEGFP; clone VEGFP

How the values were obtained:
[1] = biological target: T1, human IL6 (Peprotech catalogue number 200-06) (human, UniProt P05231 30-212); test: Biacore, GH6L IgG1 captured on anti-light chain antibody immobilised on a CM5 chip (no GMCSF), concentration series of IL6 injected; five sensorgrams with fits [contd.]
T1 construct: Bought protein
Description: (§1) The antibody was expressed in human IgG1 format using standard mammalian expression vectors bearing GH6L heavy and light chain and signal peptide cDNAs, by transient transfection of HEK293-6E cells. Expressed IgG was affinity-purified using protein A resin. For Biacore™ analysis, GMCSF (Peprotech catalogue number 300-03) or an anti-light chain capture antibody was immobilized onto a CM5 chip using amine-coupling, resulting in 4000 RU and 12000 RU immobilized GMCSF and anti-light chain capture antibody, respectively.

[2] = biological target: T1, human IL6 (Peprotech catalogue number …); test: Biacore, GH6L IgG1 captured on GMCSF immobilised on a CM5 chip (GMCSF bound at the same time), concentration series of IL6 injected; five sensorgrams with fits [contd.]
Description: as §1

[3] = biological target: T2, human VEGF (Peprotech catalogue number 100-20) (human, UniProt P15692-4 27-191); test: SPR (Biacore), Fab captured by anti-light chain antibody on CM5 chip, VEGF 0-450 nM in flow
T2 construct: Bought protein
Procedure: Antibody libraries were selected against human VEGF (Peprotech catalogue number 100-20) and human IL6 (Peprotech catalogue number 200-06). Of the isolated parental antibody clones, IL6P and VEGFP were combined into the bi-specific antibody clone VH6L. […] To assess the affinities of parental and bi-specific antibodies, Biacore™ analysis was performed in order to analyze the binding behaviour of IL6P, VH6L and VEGFP. For this, an anti-light chain capture antibody was immobilized onto a CM5 chip using amine-coupling, resulting in 12000 RU. Fab fragments were captured to a level of 400-500 RU and a concentration series of IL6 and VEGF, ranging from 0 to 450 nM, was passed over the chip. As depicted in FIG. 7, clone IL6P binds to IL6, but not to VEGF, clone VEGFP binds to VEGF, but not to IL6, and the combined clone VH6L binds to both IL6 and VEGF.

T2 sequence (P15692 other isoform, or with tags, fused parts or gaps limits assumed): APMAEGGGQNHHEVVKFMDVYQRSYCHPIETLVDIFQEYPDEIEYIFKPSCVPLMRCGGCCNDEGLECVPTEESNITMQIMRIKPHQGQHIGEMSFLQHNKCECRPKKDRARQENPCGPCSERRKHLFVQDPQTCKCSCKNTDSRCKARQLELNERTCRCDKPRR

Binder	koff [1] [s⁻¹]	kon [1] [M⁻¹ s⁻¹]	koff [2] [s⁻¹]	kon [2] [M⁻¹ s⁻¹]	Kd [3] [nM]
B1	0.0017	57000	0.00045	24000	–
B2	–	–	–	–	7.8
B3	–	–	–	–	11
